Assay [1] addresses T1, wild-type L1Fc chimeric protein (human, UniProt P32004 20-1120).
T1 construct: Produced in COS-7 cells, purified on protein A-Sepharose; in the two-color assay it was held on anti-human IgG coated beads; also called soluble L1; wt; not shown: immunoglobulin Fc, human (cross-linked with anti-human Fc antibodies)
In words: two-color FACS bead aggregation, mutant L1Fc beads with wild-type L1Fc beads, mixed aggregates at 30 min.

For assay [2], the system named is cortical axons repelled by Sema3A secreted from the ventral spinal cord. The assay can be described thus: Co-culture of cortical slices and ventral spinal cord explants (axon guidance response to Sema3A). The format is cell-based, mice. The conditions noted are these: for switching of Sema3A repulsion to attraction by L1Fc chimera: chimera 3 μg/ml in culture medium. As for the experimental part:
Blocks of cortex were dissected from P0 (postnatal day 0) to P2 mice and cut into 250 μm thick slices with a McIlwain tissue chopper. The ventral part of the cervical spinal cord was dissected and cut into 250 μm thick slices. Co-culture of cortical slices and ventral spinal cord explants were performed in a three-dimensional plasma clot, as described previously (Castellani et al., 2000). Cortical slices were oriented in the plasma clot as indicated in FIG. 1B to give to axons equivalent chances to be deflected away or towards the spinal cord explant. Purified wild-type or mutant L1Fc chimeras were added to the culture medium (3 μg/ml). Inhibitors of the guanylyl cyclase (ODQ, 10^−5 M, Sigma) and NOS (7NI, […], Sigma) were added to the culture medium, either alone or with wild-type L1Fc (3 μg/ml). After one or two days in vitro (DIV), the cultures were fixed with 4% paraformaldehyde (PFA) and analyzed by phase contrast microscopy (Axiovert 35-M, Zeiss). A qualitative guidance index was attributed to the co-cultures, to assess the degree of repulsive (negative values) or attractive (positive values) effects (Castellani et al., 2000). The index ranged from −2 (when most fibers grew away from the spinal cord explant) to +2 (when most fibers grew towards the explant), with intermediate situations (index of −1 and +1 for moderate guidance effects). An index of zero was attributed to the cultures showing no preferential growth. Quantitative analysis of axon length and number of axons growing from cortical slices was performed as described previously (Castellani et al., 2000). A proximal and a distal region, each of them covering a 600 μm-piece of cortical tissue were determined for each culture. All fibers extending from these two regions were counted and the length of the three longest fibers was measured, using computer analysis software (Visiolab 2000, Biocom). Immunofluorescence labeling of axons was performed using the mouse anti-phosphorylated neurofilament antibody SMI31 (Stemberger and Meyer Inc.), and Texas red-conjugated secondary anti-mouse antibody (see result obtained for number of axons and axonal length in the following tables 1 and 2).
It has been previously developed an assay system using explants of ventral spinal cord co-cultured with cortical axons in order to determine the factors involved in axonal repulsion and attraction (Castellani et al., 2000). Using this system we have shown that Sema3A secreted from the ventral spinal cord repels cortical axons. In the presence of soluble wild-type L1Fc chimeric protein however, repulsion is switched to attraction (Castellani et al., […]). In the present study, we aimed to identify the L1 interactions underlying the switching process. As Ig domains have been implicated in binding of Ig CAMs to many of their ligands (Brümmendorf and Rathjen, 1996) we hypothesized that they would also be required for L1 Fc-mediated switching. […] L1 Fc chimeras containing pathological missense mutations affecting specific Ig domains (De Angelis et al., 1999 and FIGS. 1A, 1B) were assessed for their ability to reverse Sema3A repulsion to attraction.

A further assay deals with T2, full length human L1 (Homo sapiens, UniProt P32004).
T2 construct: transiently transfected with expression vectors encoding full length human L1; expressed in transfected cells; host or cells: COS7
The assay can be described thus: Binding of L1Fc chimeras to COS cells expressing wild-type L1 (immunofluorescence). As for the experimental part: (§1) The mutant L1Fc chimeras were produced and purified as described previously (De Angelis et al., 1999). Briefly, COS-7 cells were transiently transfected with 10 μg DNA per 150 mm culture dish, the soluble Fc chimeric protein was allowed to accumulate in the media for 6 days and was recovered and purified by protein A-Sepharose affinity chromatography. In the binding experiments, L1Fcs were cross-linked to anti-human Fc antibodies (50 μg/ml, Jackson Immunoresearch) for 1 hr at 37° C. Binding detection to NP-1 requested concentrations of L1Fcs 10 folds higher than L1. Antibody conjugated L1-Fc protein was then incubated with monolayers of COS7 cells transiently transfected with expression vectors encoding full length human L1 or myc-tagged NP-1 where the cytoplasmic domain is deleted (gift of J. Raper, 2000 and Renzi et al., 1999). Following incubation, the cells were fixed with 4% PFA, and processed for double-immunofluorescence detection. NP-1 was detected using a mouse anti-c myc antibody (clone 9E10, Sigma) and L1 using a rat monoclonal anti-L1 antibody. Secondary antibody anti-c-myc (Texas-red conjugated anti-mouse antibodies) was used to detect NP-1, anti-L1 (Texas red conjugated anti-rat antibodies) to detect L1, and anti-Fc (FITC conjugated anti-rabbit antibodies) to detect bound L1Fc chimeras. After secondary antibody incubation, the cells were washed with PBS and mounted in Mowiol (Calbiochem).
Thus, Ig CAMs F3 and TAG-1 (the rodent homologue of axonin-1) ate unlikely to be axonal receptors for L1Fc in the reversion process. […] In the present study however, mutated L1Fc proteins were required to interact with wild-type L1 expressed on growth cones. To formally exclude a role for homophilic binding of L1 in the initiation of the reversion process, it was therefore necessary to examine whether homophilic binding of the mutated L1Fc chimeras to wild-type L1 was also disrupted. Mutated L1Fcs were therefore incubated with COS7 cells transfected with full-length wild-type L1 cDNA and binding was assessed by immunofluorescence. In parallel, homophilic binding of mutant/mutant and mutant/wild-type L1Fcs was compared in a two-color FACS aggregation assay, allowing a quantitative assessment to be made (see Methods). […] Similarly, in the two color FACS assay homophilic binding was restored to 74.4% and 90.5% of wild-type levels for A426D and H210Q respectively (FIG. 2B). […] This mutation however still promoted the L1 Fc induced switching of Sema3A repulsion to attraction in the co-culture assay. Thus, the ability of L1Fc to switch Sema3A repulsion is not dependent on homophilic binding. Consequently, the trans interaction of L1Fc with L1 in the receptor complex is not required for the change in growth cone responsiveness to Sema3A.

For the next assay, the system named is wild-type L1. In words: Two-color FACS aggregation assay (homophilic binding). The conditions noted are these: mixed aggregates at the 30-minute time-point; mutant/wild-type. As for the experimental part:
A two-color aggregation assay was developed, modified from the homophilic binding assay described by De Angelis et al. (1999). For the two-color assay, red and green fluorescent microsphere beads (0.6 um, Duke Scientific Corps.) were coated with anti-human IgG antibody (Fc specific; Sigma, 1-2136). 2.5 μg of wild type (red beads) or mutant (green beads) L1Fc-proteins were conjugated to 10 μl of antibody-coated beads by incubating for 2 hrs at 37° C. Excess unbound protein was removed by washing with PBS/5% FCS. For each mutant, a 1:1 mixture of wild-type L1 and mutant L1 coated beads was prepared, dissaggregated to produce a single bead suspension and allowed to form mixed aggregates at 37° C. with samples removed in duplicate over a 30-minute time course. Samples were diluted 1:5000 into ice cold PBS and the proportion of 2 colour aggregates was assessed using a fluorescence activated cell sorter (Becton Dickenson FACSort). Ten thousand particles were counted per sample and categorised as red only (WT-L1: WT-L1), green only (Mutant L1: Mutant L1) or mixed aggregates. Every mutant protein was assayed at least 3 separate times and standardised to a wild-type control conducted in parallel.

Another assay has as its system NP-1. In words: Binding of L1Fc chimeras to NP-1 expressing COS7 cells (immunofluorescence). Here is the method: as §1
Next, we examined the ability of the mutant L1 Fc chimeras to bind NP-1. COS7 cells were transfected with a vector encoding the extracellular and transmembrane domains of NP-1 fused to a myc tag (ANP-1, Renzi et al., J. Neurosci., 15:7870-7880, 1999), and incubated with the mutant L1Fc chimeras. Binding was detected by immunofluorescence. […] Binding of L120V, G121S and A426D L1Fcs to NP-1 is illustrated in FIG. 3.

The subject of a further assay is L1. The conditions noted are these: mutant bound to itself; cited from earlier work.
Another assay relates to F3, axonin-1 and TAX-1. The following applies: F3, axonin-1 (and TAX-1 where stated); cited from earlier work.

Residue numbers refer to the chain shown, from its start. Names may count otherwise. “Also recorded” adds a separate entry of the source. Like-named read-outs stand apart in the source and are kept apart here.

T2 sequence (P32004 20-1257): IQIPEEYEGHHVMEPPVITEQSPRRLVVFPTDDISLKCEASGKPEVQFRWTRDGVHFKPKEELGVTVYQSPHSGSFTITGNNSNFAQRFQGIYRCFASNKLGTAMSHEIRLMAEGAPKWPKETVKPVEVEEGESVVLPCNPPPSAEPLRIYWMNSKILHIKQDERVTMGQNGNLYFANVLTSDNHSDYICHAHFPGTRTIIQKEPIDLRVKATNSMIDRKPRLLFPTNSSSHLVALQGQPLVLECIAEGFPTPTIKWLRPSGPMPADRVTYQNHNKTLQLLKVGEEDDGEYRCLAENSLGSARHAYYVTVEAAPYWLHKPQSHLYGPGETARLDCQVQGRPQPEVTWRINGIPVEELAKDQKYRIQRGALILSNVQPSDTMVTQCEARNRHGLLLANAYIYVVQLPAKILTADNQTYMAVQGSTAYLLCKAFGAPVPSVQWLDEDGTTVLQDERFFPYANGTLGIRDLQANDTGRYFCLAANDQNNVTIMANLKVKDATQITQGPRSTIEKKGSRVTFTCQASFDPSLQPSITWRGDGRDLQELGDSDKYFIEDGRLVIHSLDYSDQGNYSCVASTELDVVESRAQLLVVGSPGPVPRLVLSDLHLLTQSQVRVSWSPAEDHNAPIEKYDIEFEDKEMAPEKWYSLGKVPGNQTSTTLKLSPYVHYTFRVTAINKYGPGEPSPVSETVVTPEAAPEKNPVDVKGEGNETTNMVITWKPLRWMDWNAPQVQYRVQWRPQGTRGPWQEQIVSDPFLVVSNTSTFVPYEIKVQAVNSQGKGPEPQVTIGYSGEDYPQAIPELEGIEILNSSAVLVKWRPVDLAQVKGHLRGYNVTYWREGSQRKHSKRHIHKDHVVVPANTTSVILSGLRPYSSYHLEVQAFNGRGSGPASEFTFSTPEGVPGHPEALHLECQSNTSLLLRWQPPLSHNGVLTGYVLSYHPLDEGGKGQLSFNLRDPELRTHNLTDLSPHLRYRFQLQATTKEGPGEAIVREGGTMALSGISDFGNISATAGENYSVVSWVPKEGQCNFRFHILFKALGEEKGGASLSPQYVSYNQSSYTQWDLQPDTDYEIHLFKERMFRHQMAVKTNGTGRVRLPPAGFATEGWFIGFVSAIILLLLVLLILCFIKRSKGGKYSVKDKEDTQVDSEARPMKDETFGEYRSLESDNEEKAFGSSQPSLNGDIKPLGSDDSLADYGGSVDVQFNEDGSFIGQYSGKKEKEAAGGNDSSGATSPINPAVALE
wild-type L1, sequence (P32004 with tags, fused parts or gaps limits assumed): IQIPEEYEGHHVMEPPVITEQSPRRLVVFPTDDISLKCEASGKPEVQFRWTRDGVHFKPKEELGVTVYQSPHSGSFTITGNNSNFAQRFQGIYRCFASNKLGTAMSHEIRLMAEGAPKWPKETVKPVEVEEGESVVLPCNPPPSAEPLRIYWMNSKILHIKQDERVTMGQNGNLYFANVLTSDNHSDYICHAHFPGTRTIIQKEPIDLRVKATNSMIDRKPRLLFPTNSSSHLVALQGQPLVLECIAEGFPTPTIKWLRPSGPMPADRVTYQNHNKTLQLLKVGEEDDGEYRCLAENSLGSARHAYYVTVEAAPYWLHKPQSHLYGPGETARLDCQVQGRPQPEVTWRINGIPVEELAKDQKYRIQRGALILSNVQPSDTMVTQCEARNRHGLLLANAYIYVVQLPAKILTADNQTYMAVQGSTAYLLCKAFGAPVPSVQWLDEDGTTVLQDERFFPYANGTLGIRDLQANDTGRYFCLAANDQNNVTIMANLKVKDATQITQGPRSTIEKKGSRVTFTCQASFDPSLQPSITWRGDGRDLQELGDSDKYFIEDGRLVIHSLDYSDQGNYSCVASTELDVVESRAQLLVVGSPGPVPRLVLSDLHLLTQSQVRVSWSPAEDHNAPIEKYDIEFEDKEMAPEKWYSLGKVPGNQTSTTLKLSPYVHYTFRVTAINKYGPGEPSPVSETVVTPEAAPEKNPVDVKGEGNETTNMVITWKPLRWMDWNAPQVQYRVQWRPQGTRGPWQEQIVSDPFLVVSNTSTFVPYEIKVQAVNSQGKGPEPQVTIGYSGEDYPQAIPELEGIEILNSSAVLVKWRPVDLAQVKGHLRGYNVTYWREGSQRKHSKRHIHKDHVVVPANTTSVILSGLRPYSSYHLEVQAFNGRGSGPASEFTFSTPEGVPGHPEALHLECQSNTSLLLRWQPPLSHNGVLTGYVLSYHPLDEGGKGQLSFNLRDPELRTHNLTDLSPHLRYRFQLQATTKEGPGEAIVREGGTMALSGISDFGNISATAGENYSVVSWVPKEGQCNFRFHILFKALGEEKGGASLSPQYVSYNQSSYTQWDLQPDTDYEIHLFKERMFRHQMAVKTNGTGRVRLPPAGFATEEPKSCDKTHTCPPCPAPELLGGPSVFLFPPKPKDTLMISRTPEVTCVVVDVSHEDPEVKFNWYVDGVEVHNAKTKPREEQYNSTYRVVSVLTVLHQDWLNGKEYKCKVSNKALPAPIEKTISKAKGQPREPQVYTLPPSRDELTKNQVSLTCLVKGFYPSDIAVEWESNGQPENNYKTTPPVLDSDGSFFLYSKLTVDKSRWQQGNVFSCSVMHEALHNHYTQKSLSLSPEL

B1: A426D mutant L1Fc chimera (Fc fusion, UniProt P32004 20-1120, looked up)
chain: IQIPEEYEGHHVMEPPVITEQSPRRLVVFPTDDISLKCEASGKPEVQFRWTRDGVHFKPKEELGVTVYQSPHSGSFTITGNNSNFAQRFQGIYRCFASNKLGTAMSHEIRLMAEGAPKWPKETVKPVEVEEGESVVLPCNPPPSAEPLRIYWMNSKILHIKQDERVTMGQNGNLYFANVLTSDNHSDYICHAHFPGTRTIIQKEPIDLRVKATNSMIDRKPRLLFPTNSSSHLVALQGQPLVLECIAEGFPTPTIKWLRPSGPMPADRVTYQNHNKTLQLLKVGEEDDGEYRCLAENSLGSARHAYYVTVEAAPYWLHKPQSHLYGPGETARLDCQVQGRPQPEVTWRINGIPVEELAKDQKYRIQRGALILSNVQPSDTMVTQCEARNRHGLLLANAYIYVVQLPDKILTADNQTYMAVQGSTAYLLCKAFGAPVPSVQWLDEDGTTVLQDERFFPYANGTLGIRDLQANDTGRYFCLAANDQNNVTIMANLKVKDATQITQGPRSTIEKKGSRVTFTCQASFDPSLQPSITWRGDGRDLQELGDSDKYFIEDGRLVIHSLDYSDQGNYSCVASTELDVVESRAQLLVVGSPGPVPRLVLSDLHLLTQSQVRVSWSPAEDHNAPIEKYDIEFEDKEMAPEKWYSLGKVPGNQTSTTLKLSPYVHYTFRVTAINKYGPGEPSPVSETVVTPEAAPEKNPVDVKGEGNETTNMVITWKPLRWMDWNAPQVQYRVQWRPQGTRGPWQEQIVSDPFLVVSNTSTFVPYEIKVQAVNSQGKGPEPQVTIGYSGEDYPQAIPELEGIEILNSSAVLVKWRPVDLAQVKGHLRGYNVTYWREGSQRKHSKRHIHKDHVVVPANTTSVILSGLRPYSSYHLEVQAFNGRGSGPASEFTFSTPEGVPGHPEALHLECQSNTSLLLRWQPPLSHNGVLTGYVLSYHPLDEGGKGQLSFNLRDPELRTHNLTDLSPHLRYRFQLQATTKEGPGEAIVREGGTMALSGISDFGNISATAGENYSVVSWVPKEGQCNFRFHILFKALGEEKGGASLSPQYVSYNQSSYTQWDLQPDTDYEIHLFKERMFRHQMAVKTNGTGRVRLPPAGFATE
notes: not shown: immunoglobulin Fc, human
In the case of B1, the “homophilic binding, percent of wild-type levels” value in assay [1] is 74.4 % of wild-type levels.

B2: L120V: L1Fc chimera with missense mutation L120V in Ig domain 1 (protein)
chain: B1 chain with L101V, D407A
modifications: left off: a dimerising Fc or GST
Turning to B2, the “switching of Sema3A repulsion to attraction by L1Fc chimera” value in assay [2] was “unable to switch the repulsive activity of Sema3A to attraction; also recorded: abrogated the reversal of Sema3A repulsion to attraction; also recorded: failed to reverse Sema3A effect”. The molecule further displayed a guidance index in assay [2] (qualitative index from −2 (repulsion) to +2 (attraction), L1Fc chimeras 3 μg/ml, ODQ 10^−5M) of −1.3. In the assay with full length human L1, the “binding to wild-type L1 expressed in COS cells” value is reported as “bound to wild-type L1”. The “homophilic binding to wild-type L1, percent of wild-type levels” value with wild-type L1 came out at 100%. In addition, the “binding to NP-1 expressing cells” value was “did not” in the assay on NP-1 and “did not bind NP-1” with NP-1 (listed as L120V-L1Fc). In addition, the “effect of mutation on homophilic binding” value in the assay on L1 is listed as “does not affect”. The “effect of mutation on heterophilic binding” value with F3, axonin-1 and TAX-1 is “does not affect”.

B3: G121S: L1Fc chimera with missense mutation G121S in Ig domain 1 (protein)
chain: B1 chain with G102S, D407A
modifications: left off: a dimerising Fc or GST
Take B3: the “switching of Sema3A repulsion to attraction by L1Fc chimera” value in assay [2] is on record as “able to reverse Sema3A repulsion to attraction; also recorded: efficiently induce switching of Sema3A repulsion to attraction; also recorded: switched Sema3A from repulsion to attraction to the same extent as wild type L1Fc”. Further, the “binding to wild-type L1 expressed in COS cells” value with full length human L1 is “did not; also recorded: almost abolished homophilic binding to wild-type L1”. Moreover, the “homophilic binding to wild-type L1, percent of wild-type levels” value in the assay with wild-type L1 is “extremely low; also recorded: almost abolished homophilic binding to wild-type L1”. Moreover, the “binding to NP-1 expressing cells” value in the assay with NP-1 is “bound to NP-1 expressing cells”. Further, the “effect of mutation on homophilic binding” value in the assay with L1 is “reduce homophilic binding”. The “effect of mutation on heterophilic binding” value in the assay on F3, axonin-1 and TAX-1 is “reduce”.

B4: H210Q mutant L1Fc chimera (Fc fusion, UniProt P32004 20-1120, looked up)
chain: B1 chain with H191Q, D407A
notes: as for B1
On to B4, for which the “homophilic binding, percent of wild-type levels” value in assay [1] was 90.5 % of wild-type levels.

Source of the values: US20060058504A1, “Peptides capable of inducing attraction to the axonal growth and their use for treating neurodegenerative diseases” (Centre National de la Recherche Scientific (CNRS), priority 2002, published 2006).
